Test [1] concerns the target T1, CD34, native glycoprotein from human HSPCs (KG1a, CD34^pos-BM, CD34^pos-UCB, CD34^pos-AML) (human, UniProt P28906 32-385, native glycosylation (about 120-130 kDa form); sialylated O-glycans and tyrosine sulfation are shown to matter for selectin binding).
T1 construct: mature; also called E-selL CD34
T1 sequence (looked up): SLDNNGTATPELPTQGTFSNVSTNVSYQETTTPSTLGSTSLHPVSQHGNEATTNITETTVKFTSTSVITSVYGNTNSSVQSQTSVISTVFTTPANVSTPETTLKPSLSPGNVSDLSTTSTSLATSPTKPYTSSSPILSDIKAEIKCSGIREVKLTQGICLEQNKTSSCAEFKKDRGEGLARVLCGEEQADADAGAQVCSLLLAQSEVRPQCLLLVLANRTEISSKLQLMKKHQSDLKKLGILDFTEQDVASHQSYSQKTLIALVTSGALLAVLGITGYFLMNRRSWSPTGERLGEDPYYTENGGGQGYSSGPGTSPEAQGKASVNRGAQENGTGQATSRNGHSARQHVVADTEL
The test is described as follows: SPR; CD34 captured from CD34^pos-BM lysate on 563 mAb, E-Ig injected, 50 mM NaCl; steady-state model.

The target of test [2] is T1, CD34, native glycoprotein from human …. In words: SPR; CD34 captured from KG1a lysate on 563-mAb, E-Ig injected (3.9-2000 nM), 150 mM NaCl; steady-state model; 2nd experiment.
In test [3] the target is T2, PSGL-1, native glycoprotein from human HSPCs (KG1a, CD34^pos-BM) (human, UniProt Q14242 42-412, native glycosylation and tyrosine sulfation).
T2 construct: mature; also called P-selectin glycoprotein ligand-1
T2 sequence (looked up): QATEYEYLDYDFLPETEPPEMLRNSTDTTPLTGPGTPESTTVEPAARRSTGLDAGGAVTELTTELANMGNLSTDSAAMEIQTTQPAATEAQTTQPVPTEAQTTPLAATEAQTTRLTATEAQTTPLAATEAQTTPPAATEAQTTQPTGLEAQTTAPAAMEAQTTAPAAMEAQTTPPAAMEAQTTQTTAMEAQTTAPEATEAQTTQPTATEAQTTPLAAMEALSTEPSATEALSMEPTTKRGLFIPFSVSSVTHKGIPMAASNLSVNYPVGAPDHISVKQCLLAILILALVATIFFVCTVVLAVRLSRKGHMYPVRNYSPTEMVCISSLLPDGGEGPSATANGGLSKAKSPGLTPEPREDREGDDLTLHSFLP
In words: SPR; PSGL-1 captured from KG1a lysate on KPL-1-mAb, E-Ig injected (3.9-2000 nM), 150 mM NaCl; steady-state model; 1st experiment. (SPR reads the build-up and loss of mass on a sensor chip optically.)

The target of test [4] is CD44 (HCELL), native glycoprotein from human HSPCs (KG1a, CD34^pos fraction) (human) (UniProt P16070). The test is described as follows: SPR; CD44 captured from KG1a lysate on Hermes-3-mAb, E-Ig injected (3.9-2000 nM), 150 mM NaCl; steady-state model; mean ± SEM.
CD44 (HCELL), native glycoprotein from human HSPCs (KG1a, CD34^pos fraction) (human), sequence (P16070 21-742): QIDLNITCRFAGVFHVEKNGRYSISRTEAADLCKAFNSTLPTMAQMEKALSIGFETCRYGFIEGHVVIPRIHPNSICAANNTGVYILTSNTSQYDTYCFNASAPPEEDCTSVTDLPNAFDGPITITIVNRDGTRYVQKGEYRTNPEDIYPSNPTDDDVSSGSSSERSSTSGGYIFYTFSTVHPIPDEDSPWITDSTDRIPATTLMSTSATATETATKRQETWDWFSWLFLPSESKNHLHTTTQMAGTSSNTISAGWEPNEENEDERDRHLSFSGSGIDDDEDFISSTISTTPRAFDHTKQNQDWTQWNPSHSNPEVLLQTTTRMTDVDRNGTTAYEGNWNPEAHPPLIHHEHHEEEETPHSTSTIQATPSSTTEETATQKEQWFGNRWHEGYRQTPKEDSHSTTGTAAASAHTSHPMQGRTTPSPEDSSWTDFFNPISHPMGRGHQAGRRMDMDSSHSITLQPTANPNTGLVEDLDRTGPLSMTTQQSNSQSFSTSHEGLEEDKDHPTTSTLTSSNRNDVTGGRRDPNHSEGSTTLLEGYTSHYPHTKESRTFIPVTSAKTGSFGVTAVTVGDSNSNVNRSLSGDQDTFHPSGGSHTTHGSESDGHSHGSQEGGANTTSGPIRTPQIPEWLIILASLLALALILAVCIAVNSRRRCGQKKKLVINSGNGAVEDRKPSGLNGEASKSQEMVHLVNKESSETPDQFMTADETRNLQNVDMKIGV

B1: recombinant E-selectin human immunoglobulin chimeric protein (Fc fusion)
chain: WSYNTSTEAMTYDEASAYCQQRYTHLVAIQNKEEIEYLNSILSYSPSYYWIGIRKVNNVWVWVGTQKPLTEEAKNWAPGEPNNRQKDEDCVEIYIKREKDVGMWNDERCSKKKLALCYTAACTNTSCSGHGECVETINNYTCKCDPGFSGLKCEQIVNCTALESPEHGSLVCSHPLGNFSYNSSCSISCDRGYLPSSMETMQCMSSGEWSAPIPACNVVECDAVTNPANGFVECFQNPGSFPWNTTCTFDCEEGFELMGAQSLQCTSSGNWDNEKPTCKAVTCRAVRQPQNGSVRCSHSPAGEFTFKSSCNFTCEEGFMLQGPAQVECTTQGQWTQQIPVCEAFQCTALSNPERGYMNCLPSASGSFRYGSSCEFSCEQGFVLKGSKRLQCGPTGEWDNEKPTCEAVRCDAVHQPPKGLVRCAHSPIGEFTYKSSCAFSCEEGFELHGSTQLECTSQGQWTEEVPSCQVVKCSSLAVPGKINMSCSGEPVFGTVCKFACPEGWTLNGSAARTCGATGHWSGLLPTCEAPTESNIP
On to B1, for which the Kd was determined as 261 nM in test [1], 268 nM in test [2], 342 nM in test [3] and 233 nM in test [4].

Usually Kd stands for a measure of binding affinity in units of concentration.

(Values after patent US20200199533A1 (KING ABDULLAH UNIVERSITY OF SCIENCE AND TECHNOLOGY, published 2020).)
